Assay results published in patent US20240115742A1, “FLUORINATED FIBERS FOR MULTIMODAL 1H AND 19F MRI, ULTRASOUND, FLUORESCENCE DETECTION AND CONFORMATIONAL AND TEMPERATURE DETECTION BY 19F MRS” (New York University, priority 2022, published 2024).
“And” between values parts separate entries of the source, which are not always exact repeats. Identical values can stand only once. Like-named read-outs stand apart in the source and are kept apart here.

Columns and labels:
Cryo-EM of Q5 gel = type: physicochemical
Procedure: Cryo-Electron Microscopy. Lacey Carbon 300 mesh copper grids (Ted Pella) were used for cryo-EM imaging on FEI TALOS F200C with Ceta 16M camera at 200 kV accelerating voltage. PELCO easiGlow™ Glow Discharge Cleaning System was also used for the plasma treatment of the grids.
Cryo-EM. Cryo-EM samples were prepared with the Vitrobot system (Thermo Fisher Scientific) which can help vitrify a thin solution layer at low temperature. Approximately 4 μl of sample solution was applied to the grids in the chamber of Vitrobot at 4° C. and 100% humidity. The sample solution was incubated for 10 s and then the grid was blotted three times. Blotting lasted 1 s for each time. […] Then, the grid was transferred into liquid nitrogen. The cryo-EM holder was kept at −175° C. to prevent solvent crystallization during the imaging. Coarse-grained Model Details. Each bond is defined by Equation 10: […]

[1] = Small angle X-ray scattering of Q5; type: physicochemical
Procedure: Small Angle X-ray Scattering (SAXS). SAXS was employed to measure interparticle interactions, structure, and shape of Q5 since it was capable of gelation in the instrument holder within 24 h. SAXS experiments were performed at the National Synchrotron Light Source-II (NSLS-II) Beamline 16-ID (LiX) at Brookhaven National Laboratory.
Small Angle X-ray Scattering (SAXS). All measurements were taken within 12 h of concentration of the protein from the dialysis bag. To study Q5 as an isolated particle, 150 μM (˜1 mg/mL) protein and dialysis buffer (50 mM Tris 500 mM NaCl pH 8.0) was loaded into a flow cell and measured in the q range […] to 3.19 Å^−1. The Q5 protein transition from solution to hydrogel was measured by incubation at 4° C. of 3 mM of Q5 protein in an eight-slot holder capable of loading 30 μL of each sample. Between measurements, the holder was returned for incubation at 4° C. Independent slots were used to load six samples of the Q5 hydrogel in solution including one for the empty cell and one for the dialysis buffer. Each slot was measured once incrementally over a 24 h incubation window to negate the impact of radiation (except for the measurement made at 24 h which was measured from the previous time point sample due to sample error in the last slot holder, however, a negligible impact of radiation was observed). Similarly, Q5 hydrogel measurements made at 3 mM and 4° C. were measured in the q range 0.005 Å^−1 to 3.19 Å^−1. Kratky plots were calculated by Guinier analysis of Rg and I(0) values. Flory exponents were calculated using MFF fit by Sosnick group online tool. Pair distance distribution function, P(r), was calculated using primus (ATSAS software).

[2] = previous studies, cited from earlier work
[3] = Q as previously described; cited from earlier work
[4] = Q, previous results; cited from earlier work
[5] = 10 Hz, Q as reported previously; cited from earlier work

Row | Substance | fiber diameter (cryo-EM) (Cryo-EM of Q5 gel; 0.5 mM, n=100) [nm] | fiber diameter (cryo-EM) (Cryo-EM of Q5 gel; 1 mM, n=100) [nm] | fiber spacing by FFT (Cryo-EM of Q5 gel; 2 mM) | crosslinked fiber diameter (cryo-EM) (Cryo-EM of Q5 gel; 2 mM, n=100) [nm] | P(r) distribution centre ([1]; 150 μM, 0 h at 4 °C) [Å] | average step-size increase of P(r) peaks ([1]; 3 mM, 24 h at 4 °C) [Å] | cylinder length ([1]; assuming cylindrical shape) [nm] | melting temperature ([2]; 50 mM Na2HPO4 pH 4.0) [°C] | melting temperature ([2]; 50 mM Na2HPO4 pH 10.0) [°C] | UCST [3] | α-helical secondary structure upon gelation [4] [%] | storage modulus G′ [5]
1 | Q5: Q hydrogel variant from Rosetta Monte Carlo search, SEQ ID NO: 14 (MRGSHHHHHHGSIEGRVKEITFIKKTIEQIAEEMKEINKAIHDIRHALENISKK) [Protein Q5] | 3.4±0.7 | 5.6±2.1 | 14-17 nm | 5.8±1.5 | 22.5 | 39.1±4.2 | 6.8±0.4 |  |  |  |  | 
2 | Q: rationally designed pentameric coiled-coil derived from C, SEQ ID NO: 23 (MRGSHHHHHHGSIEGRVKEITFLKNTAPQMLRELQETNAALQDVRELLRQQSKL) [reference compound] |  |  |  |  |  |  |  | 55.3 | 46.4 | ~16 °C and 16.2 °C | 52 | 50.4 Pa and 50 Pa
